Data reported in the supplement of paper PMC10567573.

B1: ZNF263 (parent)
chain: QRTHTGEKPYKCPECGEIFAHSSN

Variants of: B1
Assay: protein stability index of a GFP-peptide fusion (GPS, HEK-293T) (PSI 1-6); higher = more stable
Settings: c terminus: a fixed tail appended
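Further: lentivirally expressed fusions sorted by FACS into six bins by GFP to DsRed ratio, PSI derived from sequencing read proportions per bin multiplied by bin number.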

| Variant | protein stability index |
| --- | --- |
| QRTHTGEKPLKCPECGEIFAHSSN [Y10L] | 3.55 |
| QRTHTGEKPCKCPECGEIFAHSSN [Y10C] | 4.75 |
| QRTHTGEKPEKCPECGEIFAHSSN [Y10E] | 4.04 |
| QRTHTGEKPTKCPECGEIFAHSSN [Y10T] | 4.55 |
| QRTHTGEKPKKCPECGEIFAHSSN [Y10K] | 3.93 |
| QRTHTGEKPIKCPECGEIFAHSSN [Y10I] | 3.59 |
| QRTHTGEKPAKCPECGEIFAHSSN [Y10A] | 3.4 |
| QRTHTGEKPDKCPECGEIFAHSSN [Y10D] | 4.31 |
| QRTHTGEKPPKCPECGEIFAHSSN [Y10P] | 4.31 |
| QRTHTGEKIYKCPECGEIFAHSSN [P9I] | 2.83 |
| QRTHTGEKYYKCPECGEIFAHSSN [P9Y] | 2.99 |
| QRTHTGEKTYKCPECGEIFAHSSN [P9T] | 3.43 |
| QRTHTGEKSYKCPECGEIFAHSSN [P9S] | 3.59 |
| QRTHTGEKFYKCPECGEIFAHSSN [P9F] | 3.22 |
| QRTHTGEKMYKCPECGEIFAHSSN [P9M] | 3.12 |
| QRTHTGEKRYKCPECGEIFAHSSN [P9R] | 3.94 |
| QRTHTGEKLYKCPECGEIFAHSSN [P9L] | 3.65 |
| QRTHTGEKWYKCPECGEIFAHSSN [P9W] | 2.74 |
| QRTHTGEKPYKCPECGEIFAHKSN [S22K] | 3.16 |
| QRTHTGEKPYKCPECGEIFAHQSN [S22Q] | 2.81 |
| QRTHTGEKPYKCPECGEIFAHFSN [S22F] | 2.8 |
| QRTHTGEKPYKCPECGEIFAHASN [S22A] | 2.88 |
| QRTHTGEKPYKCPECGEIFAHGSN [S22G] | 2.92 |
| QRTHTGEKPYKCPECGEIFAHCSN [S22C] | 4.15 |

| Variant | protein stability index |
| --- | --- |
| QRTHTGEKPYKCPECGEIFAHISN [S22I] | 2.52 |
| QRTHQGEKPYKCPECGEIFAHSSN [T5Q] | 3.65 |
| QRTHHGEKPYKCPECGEIFAHSSN [T5H] | 3.75 |
| QRTHMGEKPYKCPECGEIFAHSSN [T5M] | 3.09 |
| QRTHVGEKPYKCPECGEIFAHSSN [T5V] | 3.06 |
| QRTHLGEKPYKCPECGEIFAHSSN [T5L] | 2.99 |
| QRTHFGEKPYKCPECGEIFAHSSN [T5F] | 2.92 |
| QRTHCGEKPYKCPECGEIFAHSSN [T5C] | 3.81 |
| QRTHWGEKPYKCPECGEIFAHSSN [T5W] | 2.33 |
| QRTHAGEKPYKCPECGEIFAHSSN [T5A] | 3.25 |
| QRTHGGEKPYKCPECGEIFAHSSN [T5G] | 3.41 |
| QRTHTGEKPYKCPGCGEIFAHSSN [E14G] | 3.31 |
| QRTHTGEKPYKCPTCGEIFAHSSN [E14T] | 3.12 |
| QRTHTGEKPYKCPMCGEIFAHSSN [E14M] | 3.82 |
| QRTHTGEKPYKCPQCGEIFAHSSN [E14Q] | 2.73 |
| QRTHTGEKPYKCPSCGEIFAHSSN [E14S] | 3.77 |
| TRTHTGEKPYKCPECGEIFAHSSN [Q1T] | 2.82 |
| YRTHTGEKPYKCPECGEIFAHSSN [Q1Y] | 2.57 |
| GRTHTGEKPYKCPECGEIFAHSSN [Q1G] | 3.06 |
| SRTHTGEKPYKCPECGEIFAHSSN [Q1S] | 3.14 |
| IRTHTGEKPYKCPECGEIFAHSSN [Q1I] | 2.54 |
| ERTHTGEKPYKCPECGEIFAHSSN [Q1E] | 3.46 |
| PRTHTGEKPYKCPECGEIFAHSSN [Q1P] | 3.7 |
| CRTHTGEKPYKCPECGEIFAHSSN [Q1C] | 4.76 |

| Variant | protein stability index |
| --- | --- |
| QRTHTGEKPYKCPECGEIFAHSSR [N24R] | 2.39 |
| QRTHTGEKPYKCPECGEIFAHSSY [N24Y] | 2.96 |
| QRTHTGEKPYKCPECGEIFAHSSA [N24A] | 3.74 |
| QRTHTGEKPYKCPECGEIFAHSSV [N24V] | 2.61 |
| QRTHTGEKPYKCPECGEIFAHSSH [N24H] | 3.49 |
| QRTHTGGKPYKCPECGEIFAHSSN [E7G] | 3 |
| QRTHTGPKPYKCPECGEIFAHSSN [E7P] | 3.42 |
| QRTHTGKKPYKCPECGEIFAHSSN [E7K] | 3.29 |
| QRTHTGIKPYKCPECGEIFAHSSN [E7I] | 2.62 |
| QRTHTGRKPYKCPECGEIFAHSSN [E7R] | 2.33 |
| QRTHTGVKPYKCPECGEIFAHSSN [E7V] | 2.35 |
| QRTHTGFKPYKCPECGEIFAHSSN [E7F] | 2.71 |
| QRTHTGTKPYKCPECGEIFAHSSN [E7T] | 3.01 |
| QRTHTGLKPYKCPECGEIFAHSSN [E7L] | 2.49 |
| QRTHTGSKPYKCPECGEIFAHSSN [E7S] | 3.05 |
| QRTHTGCKPYKCPECGEIFAHSSN [E7C] | 3.93 |
| QRTHTGEKPYMCPECGEIFAHSSN [K11M] | 2.97 |
| QRTHTGEKPYSCPECGEIFAHSSN [K11S] | 3.83 |
| QRTHTGEKPYTCPECGEIFAHSSN [K11T] | 2.98 |
| QRTHTGEKPYGCPECGEIFAHSSN [K11G] | 3.54 |
| QRTHTGEKPYACPECGEIFAHSSN [K11A] | 3.56 |
| QRTHTGEKPYWCPECGEIFAHSSN [K11W] | 3.23 |
| QRTHTGEKPYDCPECGEIFAHSSN [K11D] | 4.28 |
| QRTHTGEKPYLCPECGEIFAHSSN [K11L] | 3.39 |

| Variant | protein stability index |
| --- | --- |
| QRTHTGEKPYVCPECGEIFAHSSN [K11V] | 3.17 |
| QRTHTGEKPYKCQECGEIFAHSSN [P13Q] | 3.67 |
| QRTHTGEKPYKCWECGEIFAHSSN [P13W] | 2.71 |
| QRTHTGEKPYKCHECGEIFAHSSN [P13H] | 3.39 |
| QRTHTGEKPYKCGECGEIFAHSSN [P13G] | 3.71 |
| QRTHTGEKPYKCRECGEIFAHSSN [P13R] | 2.94 |
| QRTHTGEKPYKCNECGEIFAHSSN [P13N] | 4.29 |
| QRTHTGEKPYKCVECGEIFAHSSN [P13V] | 3.48 |
| QRTHTGEKPYKCYECGEIFAHSSN [P13Y] | 3.57 |
| QRTHTGEKPYKDPECGEIFAHSSN [C12D] | 5.18 |
| QRTHTGEKPYKQPECGEIFAHSSN [C12Q] | 4.35 |
| QRTHTGEKPYKGPECGEIFAHSSN [C12G] | 3.98 |
| QRTHTGEKPYKKPECGEIFAHSSN [C12K] | 4.26 |
| QRTHTGEKPYKCPECGEIFAGSSN [H21G] | 3.22 |
| QRTHTGEKPYKCPECGEIFAYSSN [H21Y] | 2.86 |
| QRTHTGEKPYKCPECGEIFATSSN [H21T] | 3.15 |
| QRTHTGEKPYKCPECGEIFAPSSN [H21P] | 3.5 |
| QRTHTGEKPYKCPECGEIFASSSN [H21S] | 3.43 |
| QRTHTGEKPYKCPECGEIFAVSSN [H21V] | 2.35 |
| QRTHTGEKPYKCPECGEIFAMSSN [H21M] | 3.19 |
| QRTHTGEKPYKCPECGEIFAASSN [H21A] | 2.95 |
| QRTHTGEKPYKCPECGEIFFHSSN [A20F] | 3.18 |
